# Laboratory results: patent US5723299, “Somatostatin receptors” (Arch Development Corporation, dated 1998)
# No end group written: not given here.
# B1: somatostatin-28 (peptide)
# peptide: SANSNPAMAPRERKAGCKNFFWKTFTSC
# B2: somatostatin-14 (peptide)
# peptide: AGCKNFFWKTFTSC
# modifications: not fully specified (bridges); cysteine pairing not given here
# Experiments:
# [1] = biological target: human somatostatin receptor SSTR1 (human); experiment: competition of [125I]iodo-Tyr11-somatostatin-14 binding to CHO cells stably expressing human SSTR1
# human somatostatin receptor SSTR1 (human), sequence (chain, as listed by the source): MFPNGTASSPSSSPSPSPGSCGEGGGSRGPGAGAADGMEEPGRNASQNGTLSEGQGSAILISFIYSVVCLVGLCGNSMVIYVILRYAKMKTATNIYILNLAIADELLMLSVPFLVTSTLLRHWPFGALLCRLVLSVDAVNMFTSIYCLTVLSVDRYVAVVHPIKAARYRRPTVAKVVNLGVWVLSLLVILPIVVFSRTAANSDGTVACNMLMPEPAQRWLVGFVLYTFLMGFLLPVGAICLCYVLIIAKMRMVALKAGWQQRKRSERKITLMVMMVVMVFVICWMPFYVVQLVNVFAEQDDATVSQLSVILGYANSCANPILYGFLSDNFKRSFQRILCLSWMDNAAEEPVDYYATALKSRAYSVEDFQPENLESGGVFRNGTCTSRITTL
# Protocol: The resulting constructs were co-transfected with pSV2neo into the dihydrofolate reductase-deficient Chinese hamster ovary (CHO) cell line, DG44, using Lipofectin Reagent (GIBCO BRL, Gaithersburg, Md.). Stable transfectants were selected and maintained in α-MEM (GIBCO BRL) containing 400 vg/ml G418. Each cell line was grown to confluency in 6-well, 35-mm diameter plates at 37° C. The cells were washed with buffer containing 10 mM HEPES, 5 mM KH_2PO_4, 5 mM MgCl_2, 150 mM NaCl, and 1% (wt./vol.) bovine serum albumin (all at pH 7.4), and were stabilized in the same buffer for 30 min at 22° C. […] Incubated cells were washed twice with 2-ml portions of ice-cold buffer and were dissolved in 1 ml of 8M urea in 3M acetic acid. The suspended cells were transferred to a tube, the well was washed with 1 ml of the same solution, and the combined extracts were measured for radioactivity by use of a gamma-counter.
# The pharmacological characteristics of SSTR1 were examined in CHO cells that were stably expressing this receptor.
# [2] = biological target: T1, mouse somatostatin receptor SSTR2 (mouse); experiment: competition of [125I]iodo-Tyr11-somatostatin-14 binding to CHO cells transfected with mouse SSTR2
# T1 chain: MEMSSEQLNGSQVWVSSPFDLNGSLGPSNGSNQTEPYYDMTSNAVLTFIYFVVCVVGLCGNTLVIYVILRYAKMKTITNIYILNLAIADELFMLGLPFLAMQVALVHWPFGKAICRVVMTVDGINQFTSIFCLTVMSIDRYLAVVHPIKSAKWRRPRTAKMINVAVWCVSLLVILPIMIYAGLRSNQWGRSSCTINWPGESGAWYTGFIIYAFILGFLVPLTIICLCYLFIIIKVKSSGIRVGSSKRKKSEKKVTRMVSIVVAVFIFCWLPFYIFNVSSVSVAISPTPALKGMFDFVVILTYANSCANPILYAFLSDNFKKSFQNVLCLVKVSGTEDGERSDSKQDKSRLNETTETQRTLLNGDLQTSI
# Description: At 1.5 PstI/XmnI fragment of the human SSTR1 gene and a 1.2 kb XbaI fragment of the mouse SSTR2 gene were inserted into the mammalian expression vectors pCMV6b and 6c, respectively (a gift of Dr. B. Chapman, Chiron Corp., Emeryville, Calif.). The resulting constructs were co-transfected with pSV2neo into the dihydrofolate reductase-deficient Chinese hamster ovary (CHO) cell line, DG44, using Lipofectin Reagent (GIBCO BRL, Gaithersburg, Md.). Stable transfectants were selected and maintained in α-MEM (GIBCO BRL) containing 400 vg/ml G418. Each cell line was grown to confluency in 6-well, 35-mm diameter plates at 37° C. The cells were washed with buffer containing 10 mM HEPES, 5 mM KH_2PO_4, 5 mM MgCl_2, 150 mM NaCl, and 1% (wt./vol.) bovine serum albumin (all at pH 7.4), and were stabilized in the same buffer for 30 min at 22° C. […] Incubated cells were washed twice with 2-ml portions of ice-cold buffer and were dissolved in 1 ml of 8M urea in 3M acetic acid. The suspended cells were transferred to a tube, the well was washed with 1 ml of the same solution, and the combined extracts were measured for radioactivity by use of a gamma-counter.
Binder,IC50 [1] [nM],IC50 [2] [nM]
B1,4.7,
B2,,1.6
